We go through three proteins from article PMC11697783, “Structure/function of ATP sulfurylase domain of human 3′-phosphoadenosine 5′-phosphosulfate synthase (hPAPSS)” (Biochemistry and Biophysics Reports, 2024).

As usually defined, the Km is the substrate concentration at which the rate is half of its maximum.

Substrate in data set [1]: O=S(=O)(O)O
As to the kind of experiment: purified protein. Type of data set: biochemical, Homo sapiens. Particulars: fixed ATP, Tris-HCl pH 8.0, MgCl2, 37 °C, labelled compound.

Substrate in data set [2]: Nc1ncnc2c1ncn2[C@@H]1O[C@H](COP(=O)(O)OP(=O)(O)OP(=O)(O)O)[C@@H](O)[C@H]1O
As to the kind of experiment: purified protein. It is filed as biochemical, Homo sapiens. As to conditions: Tris-HCl pH 8.0, MgCl2, 37 °C; for K0.5: half maximal estimate, biphasic response, ATPS + APSK combined activity (two ATP sites).

Changes are numbered by the printed parent chain. Names may count otherwise.

B1: COOH-terminal (aa 220-623) ATPS domain of hPAPSS1 (Homo sapiens) (protein)
chain: LQERDIVPVDASYEVKELYVPENKLHLAKTDAETLPALKINKVDMQWVQVLAEGWATPLNGFMREREYLQCLHFDCLLDGGVINLSVPIVLTATHEDKERLDGCTAFALMYEGRRVAILRNPEFFEHRKEERCARQWGTTCKNHPYIKMVMEQGDWLIGGDLQVLDRVYWNDGLDQYRLTPTELKQKFKDMNADAVFAFQLRNPVHNGHALLMQDTHKQLLERGYRRPVLLLHPLGGWTKDDDVPLMWRMKQHAAVLEEGVLNPETTVVAIFPSPMMYAGPTEVQWHCRARMVAGANFYIVGRDPAGMPHPETGKDLYEPSHGAKVLTMAPGLITLEIVPFRVAAYNKKKKRMDYYDSEHHEDFEFISGTRMRKLAREGQKPPEGFMAPKAWTVLTEYYKSLEK
notes: C-terminal ATP sulfurylase domain with linker, residues 220-623, APS kinase domain deleted; recombinant, purified
On to B1, for which the Km in the data set “purified protein [1]” (ATP sulfurylase activity) worked out at 530 µM; in the data set “purified protein [2]” (fixed sulfate, ATP sulfurylase activity), 2200 µM.

B2: hPAPSS1 (full length, residues 1-623) (Homo sapiens) (protein)
chain: MEIPGSLCKKVKLSNNAQNWGMQRATNVTYQAHHVSRNKRGQVVGTRGGFRGCTVWLTGLSGAGKTTVSMALEEYLVCHGIPCYTLDGDNIRQGLNKNLGFSPEDREENVRRIAEVAKLFADAGLVCITSFISPYTQDRNNARQIHEGASLPFFEVFVDAPLHVCEQRDVKGLYKKARAGEIKGFTGIDSEYEKPEAPELVLKTDSCDVNDCVQQVVELLQERDIVPVDASYEVKELYVPENKLHLAKTDAETLPALKINKVDMQWVQVLAEGWATPLNGFMREREYLQCLHFDCLLDGGVINLSVPIVLTATHEDKERLDGCTAFALMYEGRRVAILRNPEFFEHRKEERCARQWGTTCKNHPYIKMVMEQGDWLIGGDLQVLDRVYWNDGLDQYRLTPTELKQKFKDMNADAVFAFQLRNPVHNGHALLMQDTHKQLLERGYRRPVLLLHPLGGWTKDDDVPLMWRMKQHAAVLEEGVLNPETTVVAIFPSPMMYAGPTEVQWHCRARMVAGANFYIVGRDPAGMPHPETGKDLYEPSHGAKVLTMAPGLITLEIVPFRVAAYNKKKKRMDYYDSEHHEDFEFISGTRMRKLAREGQKPPEGFMAPKAWTVLTEYYKSLEK
notes: full length 1-623 (APSK + ATPS domains); E. coli BL21(DE3) pLys; Ni column and gel filtration
Take B2: the Km in “purified protein [1]” (ATPS + APSK combined activity) was determined as 330 µM. For the same protein, the K0.5 in “purified protein [2]” is reported as 4.3 mM.

B3: hPAPSS1 (full length, residues 1-623) (Homo sapiens; N426K) (protein)
chain: B2 chain with N426K
notes: as for B2
As for B3, the Michaelis-Menten constant (Km) in “purified protein [1]” (ATPS + APSK combined activity) is 440 µM. The K0.5 in the data set “purified protein [2]” is on record as 3.7 mM.
